What was measured:
[1] = molecular target: SARS-CoV-1 spike protein on HIV-based pseudovirus (SARS-CoV) (UniProt P59594); assay: cell-based or functional assay
[2] = molecular target: SARS-CoV-2 spike protein on pseudovirus (SARS-CoV-2) (UniProt P0DTC2); assay: cell-based or functional assay

With CR3014 IgG1 (antibody) as the substance, how does the Fold Over IgG1 (CoV-1) By Molar [1] read?
Its Fold Over IgG1 (CoV-1) By Molar is 1 fold.

What about the Fold Over IgG1 (CoV-1) By Weight [1] of the same substance?
Its Fold Over IgG1 (CoV-1) By Weight is 1 fold.

What about the IC50, SARS-CoV-1 pseudovirus neutralization [1] of the same substance?
Its IC50, SARS-CoV-1 pseudovirus neutralization is 0.068 µg/mL.

What about the IC50, SARS-CoV-2 pseudovirus neutralization [2] of the same substance?
The IC50, SARS-CoV-2 pseudovirus neutralization was greater than 100000 µg/mL.

How did the Fold Over IgG1 (CoV-1) By Molar [1] turn out when CR3014 IgM + J (antibody) was run?
The Fold Over IgG1 (CoV-1) By Molar was greater than 80 fold.

What about the Fold Over IgG1 (CoV-1) By Weight [1] of the same substance?
Its Fold Over IgG1 (CoV-1) By Weight is greater than 13 fold.

And the IC50, SARS-CoV-1 pseudovirus neutralization [1]?
The IC50, SARS-CoV-1 pseudovirus neutralization was less than 0.0051 µg/mL.

What about the IC50, SARS-CoV-2 pseudovirus neutralization [2] of the same substance?
The IC50, SARS-CoV-2 pseudovirus neutralization was greater than 100000 µg/mL.
